Source: PMC8092461 (Nature, 2020)

B1: C104 IgG (antibody, V domains shown)
VH: QVQLQQWGAGLLKPSETLSLSCAVYGGSLSGYYWSWIRQPPGKGLEWIGEINHFGSTGYNPSLKSRVTISVDTSKSQFSVKLSSVTAADTAVYYCARKPLLYSNLSPGAFDIWGQGTMVTVSS
VL: EIVLTQSPGTVSLSPGERATLSCWASQSVSASYLAWYQQKPGQAPRLLIYGASSRATGIPDRFSGSGSGTDFTLTISRLEPEDFAVYYCQQYGTTPRTFGGGTKVEIK
B2: C105 IgG (antibody, V domains shown)
VH: QVQLVESGGGLIQPGGSLRLSCAASGFTVSSNYMSWVRQAPGKGLEWVSVIYSGGSTYYADSVKGRFTISRDNSKNTLYLQMNSLRAEDTAVYYCARGEGWELPYDYWGQGTLVTVSS
VL: QSALTQPPSASGSPGQSVTISCTGTSSDVGGYKYVSWYQQHPGKAPKLMIYEVSKRPSGVPDRFSGSKSGNTASLTVSGLQAEDEADYYCSSYEGSNNFVVFGGGTKLTVL
B3: C110 IgG (antibody, V domains shown)
VH: QVQLQQSGAEVKKPGESLKISCKGSGYSFTSYWIGWVRQMPGKGLEWMGIIYPGDSDTRYSPSFQGQVTISADKSISTAYMQWSSLKASDTAMYYCARSFRDDPRIAVAGPADAFDIWGQGTMVTVSS
VL: DIQMTQSPSTLSASVGDRVTITCRASQSISYWLAWYQQKPGKAPKLLIYQASSLESGVPSRFSGSESGTEFTLTISSLQPDDFATYYCQQYNSYPYTFGQGTKLEIK
B4: C119 IgG (antibody, V domains shown)
VH: QVQLVQSGAEVKKPGASVKVSCKASGYTFTSYYMHWVRQAPGQGLEWMGIINPSGGSTSYAQKLQGRVTMTRDTSTSTVYMELSSLRSEDTAVYYCARANHETTMDTYYYYYYMDVWGKGTTVTVSS
VL: QSALTQPASVSGSPGQSITISCTGTSSDVGGYKYVSWYQRHPGKAPKLMIYDVSNRPSGVSNRFSGSKSGNTASLTISGLQAEDEADYYCSSYTSSSTSVVFGGGTQLTVL
B5: C121 IgG (antibody, V domains shown)
VH: not shown
VL: QSALTQPASVSGSPGQSITISCTGTSSDVGSYNLVSWYQQHPGKAPKLMIYEGSKRPSGVSNRFSGSKSGNTASLTISGLQAEDEADYYCCSYAGSSTLVFGGGTKLTVL
B6: C002 IgG (antibody, V domains shown)
VH: EVQLVESGGGVVQPGRSLRLSCAASGFTFSIYGMHWVRQAPGKGLEWVAVISYDGSNKYYADSVKGRFTISRDNSKNTLYLQMNSLRAEDTAVYYCAKEGRPSDIVVVVAFDYWGQGTLVTVSS
VL: not shown

Each binder was assayed against SARS-CoV-2 RBD (receptor-binding domain of S, residues 331-524) (SARS-CoV-2, UniProt P0DTC2) (assay: SPR).
B1: binds.
B2: binds.
B3: binds.
B4: binds.
B5: binds.
B6: binds.
